Assays:
Assay in all cases: SEC
[1] = target: T1, S100A9(C3S) with K106A (S100A9 subunit of CP-Ser(K106A)) (human, UniProt P06702 1-114, C3S | K106A)
T1 sequence (looked up): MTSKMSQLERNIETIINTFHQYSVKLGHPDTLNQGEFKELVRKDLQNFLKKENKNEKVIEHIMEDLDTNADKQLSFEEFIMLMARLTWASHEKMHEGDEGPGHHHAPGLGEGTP

S100A9(C3S) = target: T2, S100A9(C3S) (human, UniProt P06702 1-90, C3S)
T2 sequence: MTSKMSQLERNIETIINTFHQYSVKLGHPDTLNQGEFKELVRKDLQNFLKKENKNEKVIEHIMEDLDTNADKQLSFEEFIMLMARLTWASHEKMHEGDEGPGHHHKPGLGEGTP

[2] = target: T3, S100A9(C3S) with D98A (S100A9 subunit of CP-Ser(D98A)) (human, UniProt P06702 1-114, C3S | D98A)
T3 sequence (looked up): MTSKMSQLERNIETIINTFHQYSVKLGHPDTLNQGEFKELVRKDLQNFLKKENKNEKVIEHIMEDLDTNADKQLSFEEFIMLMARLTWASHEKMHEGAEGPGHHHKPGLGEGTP

[3] = target: T4, S100A9(C3S) with E96A (S100A9 subunit of CP-Ser(E96A)) (human, UniProt P06702 1-114, C3S | E96A)
T4 sequence (looked up): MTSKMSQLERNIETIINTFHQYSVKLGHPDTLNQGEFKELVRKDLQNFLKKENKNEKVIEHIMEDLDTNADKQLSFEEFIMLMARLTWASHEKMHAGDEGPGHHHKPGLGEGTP

[4] = target: T5, S100A9(C3S) with E111A (S100A9 subunit of CP-Ser(E111A)) (human, UniProt P06702 1-114, C3S | E111A)
T5 sequence (looked up): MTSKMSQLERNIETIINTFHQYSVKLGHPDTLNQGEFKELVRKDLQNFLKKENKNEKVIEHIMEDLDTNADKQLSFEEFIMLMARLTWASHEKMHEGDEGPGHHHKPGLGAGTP

[5] = target: T6, S100A9(C3S) with H104A (S100A9 subunit of CP-Ser(H104A)) (human, UniProt P06702 1-114, C3S | H104A)
T6 sequence (looked up): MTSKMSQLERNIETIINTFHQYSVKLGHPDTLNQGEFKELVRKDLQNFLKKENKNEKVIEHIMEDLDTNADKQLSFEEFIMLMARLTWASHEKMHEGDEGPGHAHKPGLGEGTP

[6] = target: T7, S100A9(C3S) with H105A (S100A9 subunit of CP-Ser(H105A)) (human, UniProt P06702 1-114, C3S | H105A)
T7 sequence (looked up): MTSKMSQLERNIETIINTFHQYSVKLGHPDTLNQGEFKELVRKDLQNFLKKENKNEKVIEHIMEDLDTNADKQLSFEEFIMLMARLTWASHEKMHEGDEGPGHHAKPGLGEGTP

[7] = target: T8, S100A9(C3S) with H103A (S100A9 subunit of CP-Ser(H103A)) (human, UniProt P06702 1-114, C3S | H103A)
T8 sequence (looked up): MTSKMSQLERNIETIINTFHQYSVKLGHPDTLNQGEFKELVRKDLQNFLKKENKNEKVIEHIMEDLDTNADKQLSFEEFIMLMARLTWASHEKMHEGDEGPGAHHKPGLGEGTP

[8] = target: T9, S100A9(C3S) with E99A (S100A9 subunit of CP-Ser(E99A)) (human, UniProt P06702 1-114, C3S | E99A)
T9 sequence (looked up): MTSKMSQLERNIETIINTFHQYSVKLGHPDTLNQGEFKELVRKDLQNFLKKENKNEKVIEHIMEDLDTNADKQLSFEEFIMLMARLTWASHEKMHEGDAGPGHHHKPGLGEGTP

[9] = target: T10, S100A9(C3S) truncated after residue 101 (S100A9 subunit of CP-Ser-Δ101) (human, UniProt P06702 1-90, C3S)
T10 sequence: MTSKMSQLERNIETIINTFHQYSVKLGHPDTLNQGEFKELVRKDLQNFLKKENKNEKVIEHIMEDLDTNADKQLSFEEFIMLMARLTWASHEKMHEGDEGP

[10] = target: T11, human-mouse S100A9 chimera (S100A9 subunit of CP-Ser-mT) (human | mouse, UniProt P06702 1-90, C3S)
T11 sequence: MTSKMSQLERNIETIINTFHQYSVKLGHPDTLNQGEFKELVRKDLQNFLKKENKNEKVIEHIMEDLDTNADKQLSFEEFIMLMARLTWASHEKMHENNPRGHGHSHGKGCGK

Measured: binding result

B1: S100A8(C42S) (natural protein, human)
chain: MLTELEKALNSIIDVYHKYSLIKGNFHAVYRDDLKKLLETESPQYIRKKGADVWFKELDINTDGAVNFQEFLILVIKMGVAAHKKSHEESHKE
binds: all assays above
